B1: Pleckstrin homology domain-containing family M member 1 (Homo sapiens), Q9Y4G2 (parent)
chain: MLSVVENGLDPQAAIPVIKKKLVGSVKALQKQYVSLDTVVTSEDGDANTMCSALEAVFIHGLHAKHIRAEAGGKRKKSAHQKPLPQPVFWPLLKAVTHKHIISELEHLTFVNTDVGRCRAWLRLALNDGLMECYLKLLLQEQARLHEYYQPTALLRDAEEGEFLLSFLQGLTSLSFELSYKSAILNEWTLTPLALSGLCPLSELDPLSTSGAELQRKESLDSISHSSGSEDIEVHHSGHKIRRNQKLTASSLSLDTASSSQLSCSLNSDSCLLQENGSKSPDHCEEPMSCDSDLGTANAEDSDRSLQEVLLEFSKAQVNSVPTNGLSQETEIPTPQASLSLHGLNTSTYLHCEAPAEPLPAQAASGTQDGVHVQEPRPQAPSPLDLQQPVESTSGQQPSSTVSETAREVGQGNGLQKAQAHDGAGLKLVVSSPTSPKNKSWISEDDFYRPSREQPLESASDHPIASYRGTPGSRPGLHRHFSQEPRKNCSLGALDQACVPSPGRRQAQAAPSQGHKSFRVVHRRQMGLSNPFRGLMKLGTVERRGAMGIWKELFCELSPLEFRLYLSNEEHTCVENCSLLRCESVGPAHSDGRFELVFSGKKLALRASSQDEAEDWLDRVREALQKVRPQQEDEWVNVQYPDQPEEPPEAPQGCLSPSDLLSEPAALQGTQFDWSSAQVPEPDAIKESLLYLYMDRTWMPYIFSLSLEALKCFRIRNNEKMLSDSHGVETIRDILPDTSLGGPSFFKIITAKAVLKLQAGNAEEAALWRDLVRKVLASYLETAEEAVTLGGSLDENCQEVLKFATRENGFLLQYLVAIPMEKGLDSQGCFCAGCSRQIGFSFVRPKLCAFSGLYYCDICHQDDASVIPARIIHNWDLTKRPICRQALKFLTQIRAQPLINLQMVNASLYEHVERMHLIGRRREQLKLLGDYLGLCRSGALKELSKRLNHRNYLLESPHRFSVADLQQIADGVYEGFLKALIEFASQHVYHCDLCTQRGFICQICQHHDIIFPFEFDTTVRCAECKTVFHQSCQAVVKKGCPRCARRRKYQEQNIFA

Variants of: B1
Conditions: with rab7a_canlf RAB7A
In the case of E729A, the “effect of a mutation on the interaction” value is reported as “with no effect”. For R769A, the “effect of a mutation on the interaction” value was “with no effect”.

Source: IntAct's records for PubMed 25500191
